From PMC13185310, “A versatile nanobody platform for live and super-resolution imaging of synaptic vesicle dynamics and plasticity in rodent and human neurons” (Journal of Nanobiotechnology, 2026) come the findings set out here.

Common to all, as to details: one partner purified
The target in assay [1] is T1, endogenous Syt1 on the surface of live hippocampal neurons (uPAINT) (Rattus norvegicus (assumed), UniProt P21707).
T1 construct: Synaptotagmin 1 (Syt1), endogenous; also called surface-exposed Syt1; source: endogenous, live hippocampal neurons (21-22 DIV)
T1 sequence (P21707 whole entry): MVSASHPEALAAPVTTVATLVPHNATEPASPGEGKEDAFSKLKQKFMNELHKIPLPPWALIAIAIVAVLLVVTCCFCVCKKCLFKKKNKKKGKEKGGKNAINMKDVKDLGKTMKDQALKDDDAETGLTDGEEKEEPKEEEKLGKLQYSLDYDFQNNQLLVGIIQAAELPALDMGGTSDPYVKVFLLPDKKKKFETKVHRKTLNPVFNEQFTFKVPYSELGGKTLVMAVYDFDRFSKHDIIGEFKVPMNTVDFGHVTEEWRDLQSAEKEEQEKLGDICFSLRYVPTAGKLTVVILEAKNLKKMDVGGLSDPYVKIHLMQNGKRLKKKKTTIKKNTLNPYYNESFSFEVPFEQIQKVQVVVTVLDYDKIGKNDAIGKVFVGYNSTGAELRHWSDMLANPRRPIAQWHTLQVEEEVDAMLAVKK
The experiment in a line: single-molecule imaging on live neurons (uPAINT); live hippocampal neurons (21-22 DIV) in high-K+ buffer with 1 nM labelled nanobody complex, HILO, 50 Hz for 320 s, 37 °C.

Assay [2] has as its target T2, endogenous Synaptotagmin 1 of primary hippocampal neurons (proximity labelling and PLA) (rat (endogenous in primary hippocampal …, UniProt P21707)).
T2 construct: Synaptotagmin 1 (Syt1), endogenous; spectra searched against the Rattus norvegicus proteome (UP000234681); neurons 'in most cases' from Wistar rat pups; also called Syt1; Syt1-lum; source: endogenous, live primary hippocampal neurons
The assay can be described thus: proximity labelling; NbLumSyt1-APEX2 taken up by live primary neurons (30 min, with biotin-phenol), 1 mM H2O2 for 30 s; streptavidin beads, LC-MS/MS; controls: no nanobody, NbALFA-APEX2.

In assay [3] the target is T3, endogenous human Syt1 of human iPSC-derived neurons (Homo sapiens, UniProt P21579).
T3 construct: Synaptotagmin 1 (Syt1), human, endogenous; also called endogenous Syt1; source: endogenous, live human iPSC-derived hypothalamic-like neurons
T3 sequence (P21579 whole entry): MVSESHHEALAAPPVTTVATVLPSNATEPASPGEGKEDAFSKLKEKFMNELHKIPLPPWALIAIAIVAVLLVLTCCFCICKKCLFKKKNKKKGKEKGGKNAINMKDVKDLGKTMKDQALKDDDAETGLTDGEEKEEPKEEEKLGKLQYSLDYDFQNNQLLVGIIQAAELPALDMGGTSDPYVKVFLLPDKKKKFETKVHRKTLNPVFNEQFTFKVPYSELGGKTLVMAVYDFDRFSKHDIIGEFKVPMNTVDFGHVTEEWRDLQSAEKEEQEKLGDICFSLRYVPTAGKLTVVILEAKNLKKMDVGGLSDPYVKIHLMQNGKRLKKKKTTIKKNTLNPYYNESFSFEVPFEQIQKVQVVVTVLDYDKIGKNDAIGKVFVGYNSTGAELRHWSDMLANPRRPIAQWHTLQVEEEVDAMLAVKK
The experiment in a line: immunostaining of cells or tissue; live staining of 80-day-old human iPSC-derived hypothalamic neurons with 5.5 µM pHluorin-labeled nanobody, 20 min at 37 °C, with 30 mM KCl or 1 µM TTX, after blocking the surface pool with unlabeled nanobody; fixed and stained with anti-GFP, anti-Syt1, anti-TUBB3.

Assay [4] concerns the target T4, endogenous Synaptotagmin 1 of wild-type mouse neurons / brain (Mus musculus, UniProt P46096).
T4 construct: Synaptotagmin 1 (Syt1), mouse, endogenous; On live neurons in the uptake experiment; in a detergent lysate in the immunoprecipitation; also called endogenous Syt1; Syt1; source: endogenous, WT mouse brain lysate (methods; the legend says mouse primary neurons); endogenous, on live WT mouse primary neurons
The assay can be described thus: co-IP; GFP-tagged nanobody preloaded on GFP Selector beads; lysate of WT or Syt1 KO mouse brain, 1 h at 4 °C; blot with a Syt1 cytoplasmic antibody.

T4 sequence (P46096 whole entry): as the sequence (P21707 whole entry) above, with H6R counted along it
T2 sequence (P21707 whole entry): as the sequence (P21707 whole entry) above

B1: NbLumSyt1-HALO bound to the Halo-ligand JF549 (VHH)
VHH: EVQLVESGGGLVQTGGSLRLSCTASGSIGSISVMGWYRQVPGTQYELVAGISRGGSTWYEDSVKGRFTISRDNAKNTLYLQMNSLKPEDTGMYYCAGGDYSDRLGSWGQGTQVTVSS
notes: alpaca nanobody clone 1F12; as the nanobody of m1 (PDB 8B8I chain A); also called NbLumSyt1-HALO/JF549; NbLumSyt1-Halo/JF549; source: produced and purified via NanoTag Biotechnologies
As for B1, the binding result in assay [1] is “binds”.

B2: NbLumSyt1-APEX2 (VHH)
VHH: EVQLVESGGGLVQTGGSLRLSCTASGSIGSISVMGWYRQVPGTQYELVAGISRGGSTWYEDSVKGRFTISRDNAKNTLYLQMNSLKPEDTGMYYCAGGDYSDRLGSWGQGTQVTVSS
notes: alpaca nanobody clone 1F12; as the nanobody of m1 (PDB 8B8I chain A); also called Nb-APEX2
With B2, the binding result in assay [2] is given as “binds”.

B3: NbLumSyt1-pHluorin (VHH)
VHH: EVQLVESGGGLVQTGGSLRLSCTASGSIGSISVMGWYRQVPGTQYELVAGISRGGSTWYEDSVKGRFTISRDNAKNTLYLQMNSLKPEDTGMYYCAGGDYSDRLGSWGQGTQVTVSS
notes: alpaca nanobody clone 1F12; as the nanobody of m1 (PDB 8B8I chain A); In uPAINT it was precomplexed with an anti-GFP nanobody carrying Atto647N (a label); A version with a TEV site in the linker also exists; also called NbSyt1-pH; pHluorin-labeled Syt1 nanobody
For B3, the binding result in assay [1] and in assay [3] was “binds” throughout.

B4: NbLumSyt1 fused to a GFP tag (VHH)
VHH: EVQLVESGGGLVQTGGSLRLSCTASGSIGSISVMGWYRQVPGTQYELVAGISRGGSTWYEDSVKGRFTISRDNAKNTLYLQMNSLKPEDTGMYYCAGGDYSDRLGSWGQGTQVTVSS
notes: alpaca nanobody clone 1F12; as the nanobody of m1 (PDB 8B8I chain A); Held on GFP Selector beads in the IP; detected with anti-GFP after uptake in neurons; also called GFP-tagged nanobody
B4: the binding result in assay [4] is “binds”.
